{"source": "patent US20140348819A1", "about": "“Methods of Treating Cancer” (Dana-Farber Cancer Institute, Inc., priority 2011, published 2014)", "system": "six V600E BRAF melanoma cell lines", "test": "Screening of recombinant RTK ligands for ability to confer resistance to BRAFi (PLX4720) or MEKi (PD184352) (Table 4)", "assay_type": "cell-based, human", "parameters": "ability of recombinant RTK ligand to confer resistance / ability of recombinant RTK ligand to confer resistance (screening value): scale not given here", "in_short": "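Resistance to BRAFi (PLX4720) or MEKi (PD184352) was tested in six V600E BRAF melanoma lines given one of 22 recombinant RTK ligands. For a subset of RTKs, activation was checked by high-throughput tyrosine kinase phosphorylation profiling and western blot.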"}
{"molecule": "Pleiotrophin (protein, UniProt P21246 33-168, looked up) Pleiotrophin: GKKEKPEKKVKKSDCGEWQWSVCVPTSGDCGLGTREGTRTGAECKQTMKTQRCKIPCNWKKQFGAECKYQFQAWGECDLNTALKTRTGSLKRALHNAECQKTVTISKPCGKLTKPKPQAESKKKKKEGKKQEKMLD", "values": [{"measurement": "ability of recombinant RTK ligand to confer resistance", "setting": "A2058, PD184352 - 1 uM, ligand 3.9 ng/ml", "result": 1.06}, {"measurement": "ability of recombinant RTK ligand to confer resistance", "setting": "A2058, PD184352 - 1 uM, ligand 15.625 ng/ml", "result": 1.07}, {"measurement": "ability of recombinant RTK ligand to confer resistance", "setting": "A2058, PD184352 - 1 uM, ligand 62.5 ng/ml", "result": 1.03}, {"measurement": "ability of recombinant RTK ligand to confer resistance", "setting": "A2058, PD184352 - 1 uM, ligand 250 ng/ml", "result": 1.00}, {"measurement": "ability of recombinant RTK ligand to confer resistance", "setting": "A2058, PD184352 - 1 uM, ligand 1000 ng/ml", "result": 0.87}, {"measurement": "ability of recombinant RTK ligand to confer resistance", "setting": "A2058, PLX4720 - 2 uM, ligand 3.9 ng/ml", "result": 1.03}, {"measurement": "ability of recombinant RTK ligand to confer resistance", "setting": "A2058, PLX4720 - 2 uM, ligand 15.625 ng/ml", "result": 1.04}, {"measurement": "ability of recombinant RTK ligand to confer resistance", "setting": "A2058, PLX4720 - 2 uM, ligand 62.5 ng/ml", "result": 1.04}, {"measurement": "ability of recombinant RTK ligand to confer resistance", "setting": "A2058, PLX4720 - 2 uM, ligand 250 ng/ml", "result": 1.02}, {"measurement": "ability of recombinant RTK ligand to confer resistance", "setting": "A2058, PLX4720 - 2 uM, ligand 1000 ng/ml", "result": 0.93}, {"measurement": "ability of recombinant RTK ligand to confer resistance", "setting": "C32, PD184352 - 1 uM, ligand 3.9 ng/ml", "result": 1.07}, {"measurement": "ability of recombinant RTK ligand to confer resistance", "setting": "C32, PD184352 - 1 uM, ligand 15.625 ng/ml", "result": 1.08}, {"measurement": "ability of recombinant RTK ligand to confer resistance", "setting": "C32, PD184352 - 1 uM, ligand 62.5 ng/ml", "result": 1.07}, {"measurement": "ability of recombinant RTK ligand to confer resistance", "setting": "C32, PD184352 - 1 uM, ligand 250 ng/ml", "result": 1.12}, {"measurement": "ability of recombinant RTK ligand to confer resistance", "setting": "C32, PD184352 - 1 uM, ligand 1000 ng/ml", "result": 0.99}, {"measurement": "ability of recombinant RTK ligand to confer resistance", "setting": "C32, PLX4720 - 2 uM, ligand 3.9 ng/ml", "result": 1.01}, {"measurement": "ability of recombinant RTK ligand to confer resistance", "setting": "C32, PLX4720 - 2 uM, ligand 15.625 ng/ml", "result": 1.04}, {"measurement": "ability of recombinant RTK ligand to confer resistance", "setting": "C32, PLX4720 - 2 uM, ligand 62.5 ng/ml", "result": 0.95}, {"measurement": "ability of recombinant RTK ligand to confer resistance", "setting": "C32, PLX4720 - 2 uM, ligand 250 ng/ml", "result": 0.96}, {"measurement": "ability of recombinant RTK ligand to confer resistance", "setting": "C32, PLX4720 - 2 uM, ligand 1000 ng/ml", "result": 0.87}, {"measurement": "ability of recombinant RTK ligand to confer resistance", "setting": "Colo 829, PD184352 - 1 uM, ligand 3.9 ng/ml", "result": 1.05}, {"measurement": "ability of recombinant RTK ligand to confer resistance", "setting": "Colo 829, PD184352 - 1 uM, ligand 15.625 ng/ml", "result": 0.99}, {"measurement": "ability of recombinant RTK ligand to confer resistance", "setting": "Colo 829, PD184352 - 1 uM, ligand 62.5 ng/ml", "result": 0.99}, {"measurement": "ability of recombinant RTK ligand to confer resistance", "setting": "Colo 829, PD184352 - 1 uM, ligand 250 ng/ml", "result": 0.96}, {"measurement": "ability of recombinant RTK ligand to confer resistance", "setting": "Colo 829, PD184352 - 1 uM, ligand 1000 ng/ml", "result": 0.95}, {"measurement": "ability of recombinant RTK ligand to confer resistance", "setting": "Colo 829, PLX4720 - 2 uM, ligand 3.9 ng/ml", "result": 1.03}, {"measurement": "ability of recombinant RTK ligand to confer resistance", "setting": "Colo 829, PLX4720 - 2 uM, ligand 15.625 ng/ml", "result": 0.96}, {"measurement": "ability of recombinant RTK ligand to confer resistance", "setting": "Colo 829, PLX4720 - 2 uM, ligand 62.5 ng/ml", "result": 0.97}, {"measurement": "ability of recombinant RTK ligand to confer resistance", "setting": "Colo 829, PLX4720 - 2 uM, ligand 250 ng/ml", "result": 0.36}, {"measurement": "ability of recombinant RTK ligand to confer resistance", "setting": "Colo 829, PLX4720 - 2 uM, ligand 1000 ng/ml", "result": 0.98}, {"measurement": "ability of recombinant RTK ligand to confer resistance", "setting": "G-361, PD184352 - 1 uM, ligand 3.9 ng/ml", "result": 0.96}, {"measurement": "ability of recombinant RTK ligand to confer resistance", "setting": "G-361, PD184352 - 1 uM, ligand 15.625 ng/ml", "result": 0.96}, {"measurement": "ability of recombinant RTK ligand to confer resistance", "setting": "G-361, PD184352 - 1 uM, ligand 62.5 ng/ml", "result": 0.97}, {"measurement": "ability of recombinant RTK ligand to confer resistance", "setting": "G-361, PD184352 - 1 uM, ligand 250 ng/ml", "result": 0.92}, {"measurement": "ability of recombinant RTK ligand to confer resistance", "setting": "G-361, PD184352 - 1 uM, ligand 1000 ng/ml", "result": 0.92}, {"measurement": "ability of recombinant RTK ligand to confer resistance", "setting": "G-361, PLX4720 - 2 uM, ligand 3.9 ng/ml", "result": 1.04}, {"measurement": "ability of recombinant RTK ligand to confer resistance", "setting": "G-361, PLX4720 - 2 uM, ligand 15.625 ng/ml", "result": 0.97}, {"measurement": "ability of recombinant RTK ligand to confer resistance", "setting": "G-361, PLX4720 - 2 uM, ligand 62.5 ng/ml", "result": 0.94}, {"measurement": "ability of recombinant RTK ligand to confer resistance", "setting": "G-361, PLX4720 - 2 uM, ligand 250 ng/ml", "result": 0.94}, {"measurement": "ability of recombinant RTK ligand to confer resistance", "setting": "G-361, PLX4720 - 2 uM, ligand 1000 ng/ml", "result": 1.00}, {"measurement": "ability of recombinant RTK ligand to confer resistance", "setting": "SK-MEL-5, PD184352 - 1 uM, ligand 3.9 ng/ml", "result": 0.93}, {"measurement": "ability of recombinant RTK ligand to confer resistance", "setting": "SK-MEL-5, PD184352 - 1 uM, ligand 15.625 ng/ml", "result": 1.00}, {"measurement": "ability of recombinant RTK ligand to confer resistance", "setting": "SK-MEL-5, PD184352 - 1 uM, ligand 62.5 ng/ml", "result": 1.02}, {"measurement": "ability of recombinant RTK ligand to confer resistance", "setting": "SK-MEL-5, PD184352 - 1 uM, ligand 250 ng/ml", "result": 1.08}, {"measurement": "ability of recombinant RTK ligand to confer resistance", "setting": "SK-MEL-5, PD184352 - 1 uM, ligand 1000 ng/ml", "result": 1.11}, {"measurement": "ability of recombinant RTK ligand to confer resistance", "setting": "SK-MEL-5, PLX4720 - 2 uM, ligand 3.9 ng/ml", "result": 0.92}, {"measurement": "ability of recombinant RTK ligand to confer resistance", "setting": "SK-MEL-5, PLX4720 - 2 uM, ligand 15.625 ng/ml", "result": 0.89}, {"measurement": "ability of recombinant RTK ligand to confer resistance", "setting": "SK-MEL-5, PLX4720 - 2 uM, ligand 62.5 ng/ml", "result": 0.95}, {"measurement": "ability of recombinant RTK ligand to confer resistance", "setting": "SK-MEL-5, PLX4720 - 2 uM, ligand 250 ng/ml", "result": 1.07}, {"measurement": "ability of recombinant RTK ligand to confer resistance", "setting": "SK-MEL-5, PLX4720 - 2 uM, ligand 1000 ng/ml", "result": 0.97}, {"measurement": "ability of recombinant RTK ligand to confer resistance", "setting": "SK-MEL-28, PD184352 - 1 uM, ligand 3.9 ng/ml", "result": 1.11}, {"measurement": "ability of recombinant RTK ligand to confer resistance", "setting": "SK-MEL-28, PD184352 - 1 uM, ligand 15.625 ng/ml", "result": 0.98}, {"measurement": "ability of recombinant RTK ligand to confer resistance", "setting": "SK-MEL-28, PD184352 - 1 uM, ligand 62.5 ng/ml", "result": 0.93}, {"measurement": "ability of recombinant RTK ligand to confer resistance", "setting": "SK-MEL-28, PD184352 - 1 uM, ligand 250 ng/ml", "result": 1.02}, {"measurement": "ability of recombinant RTK ligand to confer resistance", "setting": "SK-MEL-28, PD184352 - 1 uM, ligand 1000 ng/ml", "result": 0.87}, {"measurement": "ability of recombinant RTK ligand to confer resistance", "setting": "SK-MEL-28, PLX4720 - 2 uM, ligand 3.9 ng/ml", "result": 1.04}, {"measurement": "ability of recombinant RTK ligand to confer resistance", "setting": "SK-MEL-28, PLX4720 - 2 uM, ligand 15.625 ng/ml", "result": 0.95}, {"measurement": "ability of recombinant RTK ligand to confer resistance", "setting": "SK-MEL-28, PLX4720 - 2 uM, ligand 62.5 ng/ml", "result": 0.95}, {"measurement": "ability of recombinant RTK ligand to confer resistance", "setting": "SK-MEL-28, PLX4720 - 2 uM, ligand 250 ng/ml", "result": 0.96}, {"measurement": "ability of recombinant RTK ligand to confer resistance", "setting": "SK-MEL-28, PLX4720 - 2 uM, ligand 1000 ng/ml", "result": 0.89}]}
